The record followed here is patent publication US20190241662A1 (ADAGENE, published 2019).

The target in assay [1] is T1, full-length human CTLA4 expressed on cells (human, UniProt P16410 36-223).
T1 construct: whole, on cells; also called HEK293F/hCTLA-4 cells; HEK293F/hCTLA4 cells
T1 sequence (looked up): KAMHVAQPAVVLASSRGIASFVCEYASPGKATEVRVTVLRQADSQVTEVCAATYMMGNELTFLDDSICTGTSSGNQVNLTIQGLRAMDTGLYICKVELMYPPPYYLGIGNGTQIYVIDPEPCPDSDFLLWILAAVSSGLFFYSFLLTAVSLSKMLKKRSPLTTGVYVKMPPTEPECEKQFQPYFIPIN
Kind of assay: flow cytometry blocking: HEK293F cells with human CTLA4, 100 nM antibody, then 100 nM CD80-Fc-Bio (blocked ligand); PBSA panel: Mean 157692, 26.3%. As to the method:
(§1) Antibodies were also tested for their ability to block binding of CTLA4 to its cognate ligands CD80 and CD86 by flow cytometry. The plasmid encoding full-length human CTLA4 was transiently expressed in HEK293F cells. Cells were washed with staining buffer (PBSA buffer including 1.76 mM KH₂PO₄, 10.14 mM Na₂HPO₄.12H₂O, 2.68 mM KCl, 136.89 mM NaCl and 1% BSA), and resuspended in staining buffer containing 100 nM test antibodies. […] Cells were washed once, and analyzed by CytoFlex flow cytometry.
A general note: A flow cytometer gives signals particle by particle.

Assay [2] concerns the target T2, full-length mouse CTLA4 expressed on HEK293F cells (mouse, UniProt P09793 36-223).
T2 construct: whole, on cells
Kind of assay: flow cytometry, transfected HEK293F cells [Cont.]. As to the method:
(§2) The affinities of the antibodies were also assessed against human and mouse CTLA4 transiently expressed on the surface of HEK293F cells (FIG. 2). Briefly, HEK293F cells were transfected with a plasmid expressing full-length human, monkey or mouse CTLA4 from a bicistronic IRES vector also encoding EGFP, and EGFP expression was used to identify the transfected cells. After 48 hours, the mammalian cell suspension (2×10⁵/well) was transferred to an Eppendorf tube, centrifuged, the supernatant was discarded, the cells were resuspended with 1 mL PBSA (to a density is 4×10⁶ cells/mL), and added to a 96 well plate. […] The cells were then washed once prior to analysis by flow cytometry (Beckman® CytoFlex).

Assay [3] has as its target T2, full-length mouse CTLA4 expressed on …. The assay is described as follows: flow cytometry, transfected HEK293F cells, antibody concentration not printed [Cont.]. As to the method: as §2
The target of assay [4] is T1, full-length human CTLA4 expressed on …. The description is as above. As to the method: as §2
The target is the same in assay [5]. The assay is described as follows: flow cytometry blocking: HEK293F cells with human CTLA4, 100 nM antibody, then 100 nM CD86-Fc-Bio (blocked ligand); PBSA panel: Mean 10678, 12.2%. As to the method: as §1
Assay [6] addresses mouse CTLA4 fused with human FC fragment (mouse, UniProt P09793 36-162, limits assumed). Kind of assay: ELISA, captured Fab, CTLA4-Fc titrated.
The target in assay [7] is T3, recombinant human CTLA4-Fc (human, UniProt P16410 36-162).
T3 construct: also called human CTLA4 fused with human FC fragment; CTLA4-Fc (Sino Biological, 11159-H03H)
T3 sequence (looked up): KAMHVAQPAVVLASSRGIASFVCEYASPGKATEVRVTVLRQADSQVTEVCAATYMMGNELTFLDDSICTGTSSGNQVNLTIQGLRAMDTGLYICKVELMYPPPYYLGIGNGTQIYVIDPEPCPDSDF
Kind of assay: BLI Octet, CTLA4-Fc on AHC sensor, Fab 10 ug/mL. As to the method: Proprietary phagemid libraries (see PCT application number PCT/CN2017/098333, incorporated herein by reference in its entirety; see also PCT application number PCT/CN2017/098299, incorporated herein by reference in its entirety) were employed to pan against human CTLA4 antigens. A total of 3-5 rounds of panning were conducted. After the final round of panning, single-colony supernatant ELISA was performed to identify the primary hits that specifically recognized human CTLA4 (see e.g., UniProt Accession Number P16410). The primary hits were defined as those whose ELISA signals were at least twice that of background. The hits were then sequenced, and the unique clones were expressed in E. coli and purified. Their affinities against human CTLA4 were measured by ForteBio Octet RED96 Systems. […] The acquired ForteBio data were processed with Data Acquisition software 7.1, and kinetic data were fitted to a 1:1 Langmuir binding model.
Background: Biolayer interferometry detects binding as a change in optical thickness at a sensor tip.

In assay [8] the target is T3, recombinant human CTLA4-Fc. Kind of assay: ELISA, coated human CTLA4-Fc (as in Example 8). As to the method: (§3) Plates were blocked with PBS supplemented with 3% non-fat milk at 37° C. for 1 hour. After washing, 100 μL of 3-fold serial dilutions of antibodies were added to each well. After incubation at 37° C. for 1 hour, plates were washed four times, and 100 μL HRP conjugated anti-human IgG (Fab specific) (1:6000 dilution) was added to each well. Plates were incubated at 37° C. for 1 hour, washed four times, and then 50 μL TMB substrate solution was added to each well, and the plate was incubated at room temperature. […] The EC₅₀ was evaluated by fitting the ELISA data using the asymmetrical sigmoidal (five-parameter logistic equation) model of GraphPad Prism 6 software.
(ELISA stands for enzyme-linked immunosorbent assay.)

The target of assay [9] is T3, recombinant human CTLA4-Fc. The assay is described as follows: ELISA, coated human CTLA4-Fc (as in Example 8). As to the method: as §3
This is another data set of the same source.

The target in assay [10] is T3, recombinant human CTLA4-Fc. Kind of assay: ELISA; EC50 divided by the EC50 of TY21580. As to the method:
as §3

Assay [11] has as its target T3, recombinant human CTLA4-Fc. The assay is described as follows: ELISA; EC50 divided by the EC50 of TY21580. As to the method: as §3
The source holds these as a separate data set.

Assay [12] addresses T3, recombinant human CTLA4-Fc. Kind of assay: ELISA, coated human CTLA4-Fc; EC50 divided by the EC50 of TY21580. As to the method:
as §3
(§4) The purified activatable antibodies were treated with the proteases which recognize the cleavage sequences, and were then tested to determine whether removal of the masking peptide restored their activity.

Assay [13] deals with T3, recombinant human CTLA4-Fc. The assay is described as follows: ELISA, coated human CTLA4-Fc (as in Example 8). As to the method:
as §3
This is another data set of the same source.

Assay [14] deals with T3, recombinant human CTLA4-Fc. The assay is described as follows: ELISA, coated human CTLA4-Fc. As to the method:
as §3, §4

Assay [15] deals with T3, recombinant human CTLA4-Fc. Kind of assay: ELISA; EC50 divided by the EC50 of TY21580. As to the method:
as §3
The source holds these as a separate data set.

B1: TY21589 (antibody, V domains shown)
VH: EVQLVESGGGLVQPGGSLRLSCAASGFTFSDYWIHWVRQAPGKGLEWIGWISPSGGGTKYAQKFQGRVTISRDNSKNTLYLQLNSLRAEDTAVYYCARGAYEFDYWGQGTLVTVSS
VL: DIQLTQSPSSLSASVGDRVTITCRASQSVSSRFLAWYQQKPGKAPKLLIYDASNRATGIPSRFSGSGSGTDFTLTISSLQPEDFATYYCQQSYPTPLTFGQGTKVEIK
notes: human IgG1 (hIgG1) from Fab hit B15740
In the case of B1, in assay [1], the “% of cells in upper right quadrant (CD80-positive) in the presence of the antibody” value was 27.5% and the “Mean of the CD80 binding signal in the presence of the antibody” value stood at 110000. The binding result in [2] is reported as “no binding (tested: not printed on the sheet)”. Further, in [3], the “% of cells in upper right quadrant (Q2)” value was 1.36%. Moreover, the “% of cells in upper right quadrant (Q2)” value in [4] came to 29.7%. Further, in [5], the “% of cells in upper right quadrant (CD86-positive) in the presence of the antibody” value came out at 0.55% and the “Mean of the CD86 binding signal in the presence of the antibody” value came to 6660.

B2: B15740 (Fab, V domains shown)
VH: B1 VH
VL: DIQLTQSPSSLSASVGDRVTITCRASQSVSSRFLAWYQQKPGKAPKLLIYDASNRATGIPSRFSGSGSGTDFTLTISSLQPEDFATYYCQQSYPTPLTFGQGTKVEIKR
notes: Fab from E. coli; also called Fab hit of TY21589
For orientation: Kd means the free concentration of one partner at which half of the binding sites on the other are occupied at equilibrium, for simple one-to-one binding. A word on the koff: it is a measure of how fast the partners let go of each other. As a reminder, the kon is the rate constant with which the complex forms. On to B2, for which, in assay [6], the binding result is “no binding”. In assay [7], the Kd was determined as 14.5 nM, the off-rate (koff) is 0.00258 s⁻¹ and the kon was 178000 M⁻¹ s⁻¹.

B3: TY22402 (antibody, IgG1, V domains shown)
VH: EVQLVESGGGLVQPGGSLRLSCAASGYSISSGYHWSWIRQAPGKGLEWLARIDWDDDKYYSTSLKSRLTISRDNSKNTLYLQLNSLRAEDTAVYYCARSYVYFDYWGQGTLVTVSS
VL: EVGSYIVHHSDCDAFYPYCDSSGRSAGGGGSPLGLAGSGGSDIQLTQSPSSLSASVGDRVTITCRASQSVRGRFLAWYQQKPGKAPKLLIYDASNRATGIPSRFSGSGSGTDFTLTISSLQPEDFATYYCQQSSSWPPTFGQGTKVEIKR
notes: IgG1; peptide fused to the N-terminus of the light chain of TY21580
One may read the EC50 as the concentration giving half of the maximal effect. For B3, the results for the EC50 in [8] and in [9] were 116 nM and 54 nM, respectively. Further, the masking efficiency in assay [10] was 243; in [11], 554.

B4: TY22404 (antibody, IgG1, V domains shown)
VH: B3 VH
VL: EVGSYPNPSSDCVPYYYACAYSGRSAGGGGSPLGLAGSGGSDIQLTQSPSSLSASVGDRVTITCRASQSVRGRFLAWYQQKPGKAPKLLIYDASNRATGIPSRFSGSGSGTDFTLTISSLQPEDFATYYCQQSSSWPPTFGQGTKVEIKR
notes: as for B3
As to B4, the masking efficiency is 216 in [12], 308 in assay [10], 572 in [11] and 469 in assay [15]. Besides, the concentration for a half-maximal effect (EC50) in assay [13] is 117 nM; in assay [14], 96.8 nM; in assay [8], 122 nM; in assay [9], 68.4 nM. In addition, in assay [14], the LogEC50 is -7.01.
